# Results published in the supplement of paper PMC10724198.
# ± gives the standard deviation of the averaged measurements.
# Test system: Saccharomyces cerevisiae
# Assay: protein stability index of tFT-peptide fusion (C-terminal peptide) (PSI (0-1 scale)); higher = more stable (slower turnover)
# Conditions: genetic background: wild type; temperature: 30 C
# Protocol: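 Multiplexed protein stability (MPS) profiling in S. cerevisiae. Random 12-aa peptides (tFT-X12 library) are fused to the C-terminus of a sfGFP-mCherry tandem fluorescent timer, after mCherry and a GGGS linker. Cells are FACS-sorted into 8 mCherry/sfGFP bins and deep-sequenced. The protein stability index (PSI) is the read-weighted bin average, scaled from 0 (unstable) to 1 (stable). Only peptides with >10 reads are reported; cells were grown at 30 °C in SC-His with glucose.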
# 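Further: PSI is a weighted mean of sequencing reads over stability bins, variants kept only with over 10 reads, mCherry proximal and sfGFP distal, peptide attached via GGGS linker.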
row,Sequence,protein stability index
1,AAEKSPQQADAD,0.709 ± 0.013
2,AAGDLGNKCGWG,0.68 ± 0.025
3,AAGRSNTEPGDH,0.69 ± 0.057
4,AAHLLPSIHGYL,0.669 ± 0.076
5,AAKGSVRLFHVF,0.561 ± 0.017
6,AAMQCSRASTSS,0.634 ± 0.077
7,AAPDLARPPLLR,0.685 ± 0.018
8,AAPEGLRRDRGA,0.571
9,AAPGWDGTIGCG,0.753 ± 0.043
10,AAPHDVARPTTR,0.689 ± 0.015
11,AAPSPRPTPLPS,0.698 ± 0.025
12,AAPSTSPGPRPA,0.652 ± 0.01
13,AARRRLFSPCSP,0.626 ± 0.1
14,ACGTFSDSMSQL,0.691 ± 0.11
15,ACIWRCFDAAMG,0.632 ± 0.019
16,ACKVIMSVGRRL,0.644 ± 0.064
17,ACSPPPPPTLLF,0.686 ± 0.012
18,ADDDTGYPPTRT,0.669 ± 0.061
19,ADPWSFKIVKEL,0.542 ± 0.028
20,ADSWACSWLLFR,0.613 ± 0.065
21,ADVVVGWWVSGW,0.791 ± 0.1
22,AEERTSETRYKN,0.656 ± 0.0079
23,AEIINRVKSRSK,0.731 ± 0.074
24,AEKTKAEKNITK,0.752 ± 0.022
25,AELAMGVSDMYS,0.6782 ± 0.0013

row,Sequence,protein stability index
1,AEQLALSQLSYV,0.687 ± 0.0099
2,AERKDKNRKKKR,0.705 ± 0.023
3,AESSLSLFPPPP,0.756 ± 0.059
4,AETALGVCGVLC,0.785 ± 0.11
5,AETYASFHLTDP,0.712 ± 0.042
6,AFALFVGKVLRC,0.566 ± 0.021
7,AFFRLSLPGARA,0.654 ± 0.011
8,AFPSCCFFLSLS,0.662 ± 0.073
9,AFPSSLVFFFYT,0.651 ± 0.033
10,AFRGGGVPGDFA,0.624 ± 0.024
11,AFSRCITVRVVH,0.498 ± 0.032
12,AFYVLPPSPLTR,0.665 ± 0.013
13,AGADCSHCVVDV,0.696 ± 0.0096
14,AGAEHRERVGQS,0.896 ± 0.056
15,AGAGRLRGGGVN,0.6767 ± 0.0017
16,AGAICWFRHILI,0.67 ± 0.14
17,AGCGGGVTASGA,0.688 ± 0.055
18,AGCRCHSKKAAT,0.624 ± 0.027
19,AGCSVVGRWCLW,0.742 ± 0.1
20,AGDGCGDWGRLS,0.761 ± 0.11
21,AGEGRLGDNIKG,0.6794 ± 0.004
22,AGFCFVALSLPL,0.629 ± 0.048
23,AGGGAAGPAGWV,0.6728 ± 0.0036
24,AGGGAVWQGQQD,0.725 ± 0.024
25,AGGGLGVVLGWW,0.7054 ± 0.0038

row,Sequence,protein stability index
1,AGHACGSLRGHP,0.682 ± 0.034
2,AGHLLDVRLLVL,0.487 ± 0.057
3,AGIFGGGRGGSV,0.697 ± 0.0048
4,AGMIRKGQYRGG,0.68 ± 0.054
5,AGPDGDWREPRP,0.57 ± 0.069
6,AGQTLARLYTRS,0.614 ± 0.12
7,AGRFSPLPPHFI,0.707 ± 0.035
8,AGSCVRLGGPEW,0.745 ± 0.052
9,AHDRLPSTRLVC,0.581 ± 0.086
10,AHLGRDVGRGTW,0.729 ± 0.062
11,AHNRQRPEPDAR,0.636 ± 0.031
12,AHRLTKVIILFG,0.67 ± 0.1
13,AHRSIFSASSLL,0.668 ± 0.084
14,AISPAPRVSPTP,0.786 ± 0.052
15,AISPHPPPALTP,0.6872 ± 0.0027
16,AISPLLPSFSPP,0.665 ± 0.037
17,AKGVYFPIKGIY,0.6436 ± 0.004
18,AKREGGGYSEDN,0.664 ± 0.086
19,AKWGGDGCGARM,0.764 ± 0.082
20,ALAPCLPESIGN,0.676 ± 0.057
21,ALAPLISLSFLS,0.68919 ± 0.00059
22,ALAQQSPLPTRP,0.703 ± 0.011
23,ALDACLYLSSGL,0.637 ± 0.0097
24,ALFCLLLPPPSP,0.724 ± 0.008
25,ALFFCLFGRVMW,0.488 ± 0.023

row,Sequence,protein stability index
1,ALFLDFCFPCLP,0.619 ± 0.011
2,ALGQWGCAELHG,0.709 ± 0.0075
3,ALGRRGPEDWSG,0.707 ± 0.031
4,ALPARFSSFRLP,0.678 ± 0.019
5,ALPFPASTSPLS,0.701 ± 0.048
6,ALPPSFPRPFSF,0.703 ± 0.036
7,ALPTLALPPCRS,0.73 ± 0.1
8,ALRLLLFISKSP,0.6119 ± 0.0013
9,ALRRKPRPRYPP,0.621 ± 0.051
10,ALRSGHALPFGF,0.667 ± 0.021
11,ALSFISYPFPLL,0.642 ± 0.1
12,AMGSDRPPQSGY,0.695 ± 0.012
13,ANRTIFWGRVRN,0.721 ± 0.05
14,ANYGSCSLGYVL,0.74 ± 0.062
15,APAAPLPVVSPD,0.752 ± 0.073
16,APAPHSPNFPFS,0.699 ± 0.008
17,APAPPPVSSASL,0.665 ± 0.013
18,APARASPPPPPP,0.633 ± 0.012
19,APHLPGHLTRPP,0.686 ± 0.086
20,APLFPLTPLAPP,0.733 ± 0.017
21,APLPASPPIPSS,0.662 ± 0.12
22,APLPRRQFPLSP,0.687 ± 0.011
23,APLSPSAPPPPP,0.709 ± 0.031
24,APPLPHSSSGSL,0.698 ± 0.028
25,APPPLCCPPLAP,0.735 ± 0.1

row,Sequence,protein stability index
1,APPPPLPPPPSP,0.689 ± 0.092
2,APPPPPPPPPPP,0.63 ± 0.056
3,APPPPPPPRLTF,0.695 ± 0.076
4,APPPPVAEAARG,0.667 ± 0.032
5,APPPREAATSIA,0.699 ± 0.036
6,APPRPCFSALTL,0.726 ± 0.076
7,APPRPTRSHSAL,0.657 ± 0.043
8,APRFDLVLPHVF,0.721 ± 0.07
9,APRRPPQHPTLL,0.626 ± 0.038
10,APRSPSLRSRHP,0.743 ± 0.018
11,APRTRLCVHEIP,0.686 ± 0.01
12,APSPPRAPLPPA,0.689 ± 0.047
13,AQELPGGAGGDG,0.659 ± 0.031
14,AQSFRGVLLDVT,0.706 ± 0.05
15,AQTTRGGRRGDE,0.657 ± 0.034
16,AQYSTPSPMGQT,0.671 ± 0.044
17,ARCLETKPVMNA,0.666 ± 0.03
18,ARFVAGLTKVDV,0.65 ± 0.029
19,ARGGTAVYKAAG,0.668 ± 0.02
20,ARGRSACGKLIY,0.654 ± 0.017
21,ARKGVDFSRVIG,0.6472 ± 0.0059
22,ARLAVTLLISPS,0.604 ± 0.016
23,ARLGSVFLDPSG,0.64833 ± 0.0003
24,ARLPPPRPLPPP,0.748 ± 0.13
25,ARLPVPPLLCPF,0.71 ± 0.061

row,Sequence,protein stability index
1,ARPFPPLSPPPP,0.655 ± 0.078
2,ARPPLARITRPS,0.686 ± 0.015
3,ARPPLSHPRPPL,0.788 ± 0.057
4,ARPPSLLLLASF,0.6475 ± 0.0058
5,ARPSPPAILVPS,0.586 ± 0.017
6,ARRAWPPPTPLF,0.719 ± 0.058
7,ARRCRPVFRHAI,0.639 ± 0.007
8,ARRGLVWTEGGG,0.718 ± 0.011
9,ARSRLAPLSVLA,0.548 ± 0.029
10,ARSTGATSEHKQ,0.667 ± 0.062
11,ARTSPRSPTFPP,0.69 ± 0.066
12,ASARLRPDCPYL,0.645 ± 0.074
13,ASAWLGLCGWVL,0.674 ± 0.018
14,ASENESDDEKLF,0.7 ± 0.071
15,ASLAPTLPPPPQ,0.677 ± 0.021
16,ASLEASFYVVPC,0.641 ± 0.014
17,ASNSSGHTTRAS,0.6727 ± 0.003
18,ASPFTYPDFFFP,0.661 ± 0.046
19,ASPLPPPSHLSL,0.741 ± 0.021
20,ASRISTAFPVPP,0.685 ± 0.057
21,ASSHSFPDAPSL,0.73 ± 0.046
